# Literature values in patent US20100267610A1, “Polypeptide comprising a knottin protein moiety” (priority 2007, published 2010).
# Where no end group is shown, it is not given here.
# Biological target: T1, PTH-1 receptor (P1R) (Homo sapiens, UniProt Q03431)
# T1 sequence (Q03431 27-593): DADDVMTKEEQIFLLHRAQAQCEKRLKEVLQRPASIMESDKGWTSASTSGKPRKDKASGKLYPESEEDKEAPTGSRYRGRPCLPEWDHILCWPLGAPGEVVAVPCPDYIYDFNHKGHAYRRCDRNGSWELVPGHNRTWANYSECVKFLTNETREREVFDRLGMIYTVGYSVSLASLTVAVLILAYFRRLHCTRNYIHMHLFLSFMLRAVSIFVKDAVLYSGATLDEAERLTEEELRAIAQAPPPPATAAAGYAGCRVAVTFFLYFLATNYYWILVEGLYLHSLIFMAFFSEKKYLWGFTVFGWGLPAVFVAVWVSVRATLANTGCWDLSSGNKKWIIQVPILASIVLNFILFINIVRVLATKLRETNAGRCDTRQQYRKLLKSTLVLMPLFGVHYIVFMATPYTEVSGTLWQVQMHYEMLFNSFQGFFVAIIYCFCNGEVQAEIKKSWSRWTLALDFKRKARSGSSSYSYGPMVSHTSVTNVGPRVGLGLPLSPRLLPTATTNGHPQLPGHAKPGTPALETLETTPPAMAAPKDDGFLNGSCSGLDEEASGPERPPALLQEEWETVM
# Details: Shimizu et al. 2000
substance,measurement,value
"PTH (1-14): shorter native analog of PTH, residues 1-14, from the literature (SVSEIQLMHNLGKH-NH2; UniProt P01270 32-45, looked up, fragment)",activation of cAMP formation in cells,able to activate cAMP formation at high micromolar concentrations
